From the supplement of paper PMC9112550, “Optimization of the antimicrobial peptide Bac7 by deep mutational scanning” (BMC Biology, 2022) come the findings set out here.

The data set has as its system Escherichia coli TOP10. In words: shrunken log2 fold change of peptide-encoding DNA abundance (4.5 h post-induction vs induction); higher = less antimicrobial activity (less host growth inhibition). The conditions noted are these: time post-induction: 4.5 h; library: site-saturation at positions 5, 18, 19, 20.
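Further: peptides expressed intracellularly from a pBAD plasmid library in pooled LB shake-flask culture, induced with 0.3% L-arabinose, DNA abundance read by NGS, three biological replicates, DESeq2 with apeglm shrinkage.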

On to RRIRTRPPRLPRPRPRPWLTPRP, for which the “shrunken log2 fold change” value is -0.0866.
Consider RRIRLRPPRLPRPRPRPQCFPRP, for which the “shrunken log2 fold change” value was -0.0127.
Under RRIRKRPPRLPRPRPRPQFEPRP stands 0.177; under RRIRKRPPRLPRPRPRPVTMPRP, -0.0185; under RRIRHRPPRLPRPRPRPNPSPRP, -0.0145.
Under RRIRIRPPRLPRPRPRPFLLPRP stands -0.563; under RRIRARPPRLPRPRPRPKELPRP, 0.404; under RRIRMRPPRLPRPRPRPIKAPRP, 0.0335.
In the case of RRIRHRPPRLPRPRPRPEHPPRP, the “shrunken log2 fold change” value was found to be 0.00839.
RRIRTRPPRLPRPRPRPIYSPRP: the “shrunken log2 fold change” value is -0.571.
Take RRIRFRPPRLPRPRPRPSYVPRP: the “shrunken log2 fold change” value is -0.501.
As to RRIRHRPPRLPRPRPRPWRRPRP, the “shrunken log2 fold change” value is -0.0609.
To RRIRKRPPRLPRPRPRPMEKPRP belongs -0.0153.
To RRIRSRPPRLPRPRPRPLNSPRP belongs -0.327.
For RRIRRRPPRLPRPRPRPMVDPRP, the “shrunken log2 fold change” value was determined as 0.0808.
As to RRIRFRPPRLPRPRPRPNSMPRP, the “shrunken log2 fold change” value was -1.01.
As for RRIRNRPPRLPRPRPRPRHKPRP, the “shrunken log2 fold change” value is -0.369.
To RRIRWRPPRLPRPRPRPAEFPRP belongs 0.292; to RRIRGRPPRLPRPRPRPCCDPRP, 0.769.
Under RRIRDRPPRLPRPRPRPSMPPRP stands -0.164; under RRIRERPPRLPRPRPRPWPDPRP, -0.0169.
As for RRIRCRPPRLPRPRPRPCQQPRP, the “shrunken log2 fold change” value is -0.0438.
Under RRIRIRPPRLPRPRPRPEHDPRP stands -0.523; under RRIRRRPPRLPRPRPRPNNRPRP, -0.0987; under RRIRYRPPRLPRPRPRPFRFPRP, -0.83.
To RRIRFRPPRLPRPRPRPEATPRP belongs 0.565; to RRIRIRPPRLPRPRPRPGNWPRP, -0.35; to RRIRYRPPRLPRPRPRPWEAPRP, -0.271.
Regarding RRIRERPPRLPRPRPRPGAWPRP, the “shrunken log2 fold change” value is -0.0396.
For RRIRWRPPRLPRPRPRPHDRPRP, the “shrunken log2 fold change” value was 0.00489.
For the sequence RRIRDRPPRLPRPRPRPAMLPRP, the “shrunken log2 fold change” value was 0.278.
To RRIRRRPPRLPRPRPRPNWVPRP belongs 0.00352.
Under RRIRFRPPRLPRPRPRPMTVPRP stands -0.463; under RRIRMRPPRLPRPRPRPHMTPRP, 0.342; under RRIRMRPPRLPRPRPRPVQKPRP, 0.069.
Turning to RRIRYRPPRLPRPRPRPEFTPRP, the “shrunken log2 fold change” value is -0.0369.
To RRIRFRPPRLPRPRPRPERVPRP belongs 0.094; to RRIRFRPPRLPRPRPRPDCHPRP, -0.0405; to RRIRPRPPRLPRPRPRPKIYPRP, -0.000172.
To RRIRMRPPRLPRPRPRPHACPRP belongs -0.0695.
As to RRIRGRPPRLPRPRPRPETYPRP, the “shrunken log2 fold change” value was 0.569.
To RRIRKRPPRLPRPRPRPTELPRP belongs 0.876; to RRIRIRPPRLPRPRPRPTSNPRP, -0.807; to RRIRPRPPRLPRPRPRPNFPPRP, 0.0652.
To RRIRPRPPRLPRPRPRPKGFPRP belongs 0.0275.
Regarding RRIRQRPPRLPRPRPRPKWCPRP, the “shrunken log2 fold change” value is -0.0936.
To RRIRVRPPRLPRPRPRPISGPRP belongs -0.118; to RRIRFRPPRLPRPRPRPPMVPRP, -0.391; to RRIRSRPPRLPRPRPRPNHKPRP, -0.738.
Under RRIRFRPPRLPRPRPRPCPKPRP stands 0.036; under RRIRGRPPRLPRPRPRPFYLPRP, -0.0695; under RRIRLRPPRLPRPRPRPCACPRP, -0.385.
Under RRIRDRPPRLPRPRPRPPKQPRP stands -0.0537; under RRIRNRPPRLPRPRPRPDWRPRP, -0.158.
Regarding RRIRRRPPRLPRPRPRPAAFPRP, the “shrunken log2 fold change” value is 0.967.
Under RRIRYRPPRLPRPRPRPGPCPRP stands -0.227.
In the case of RRIRARPPRLPRPRPRPFGLPRP, the “shrunken log2 fold change” value came out at 2.49.
To RRIRTRPPRLPRPRPRPNIRPRP belongs -0.0979.
For the sequence RRIRCRPPRLPRPRPRPPLWPRP, the “shrunken log2 fold change” value came to 0.32.
Under RRIRTRPPRLPRPRPRPPPQPRP stands 0.848; under RRIRNRPPRLPRPRPRPGKHPRP, -0.0999.
As for RRIRQRPPRLPRPRPRPCPEPRP, the “shrunken log2 fold change” value was -0.249.
Under RRIRTRPPRLPRPRPRPGPYPRP stands -0.159; under RRIRARPPRLPRPRPRPHRTPRP, -0.115; under RRIRRRPPRLPRPRPRPTMNPRP, -0.0748.
To RRIRWRPPRLPRPRPRPCRYPRP belongs -0.129.
As for RRIRPRPPRLPRPRPRPDFHPRP, the “shrunken log2 fold change” value was -0.26.
In the case of RRIRNRPPRLPRPRPRPQHCPRP, the “shrunken log2 fold change” value was -0.065.
Under RRIRYRPPRLPRPRPRPMIIPRP stands -0.138; under RRIRERPPRLPRPRPRPDGCPRP, 0.0163; under RRIRRRPPRLPRPRPRPCVPPRP, -0.149.
Take RRIRWRPPRLPRPRPRPMGVPRP: the “shrunken log2 fold change” value was -0.00743.
Take RRIRWRPPRLPRPRPRPLDVPRP: the “shrunken log2 fold change” value came out at 0.00856.
Take RRIRSRPPRLPRPRPRPFTSPRP: the “shrunken log2 fold change” value was 0.0532.
To RRIRPRPPRLPRPRPRPNPFPRP belongs -0.382.
To RRIRWRPPRLPRPRPRPFAGPRP belongs 0.0847; to RRIRARPPRLPRPRPRPAWTPRP, -0.0258.
To RRIRHRPPRLPRPRPRPGNQPRP belongs 0.0401.
RRIRIRPPRLPRPRPRPRLFPRP: the “shrunken log2 fold change” value was found to be 0.0705.
Take RRIRLRPPRLPRPRPRPYQEPRP: the “shrunken log2 fold change” value is -0.46.
With RRIRIRPPRLPRPRPRPIWGPRP, the “shrunken log2 fold change” value was -0.0934.
Take RRIRWRPPRLPRPRPRPSLMPRP: the “shrunken log2 fold change” value turned out to be 0.122.
With RRIRPRPPRLPRPRPRPSAYPRP, the “shrunken log2 fold change” value is -0.386.
To RRIRLRPPRLPRPRPRPHFCPRP belongs 0.0717; to RRIRGRPPRLPRPRPRPPTIPRP, 0.459; to RRIRRRPPRLPRPRPRPFMFPRP, 0.234.
With RRIRWRPPRLPRPRPRPINQPRP, the “shrunken log2 fold change” value was -0.0913.
Under RRIRFRPPRLPRPRPRPEQWPRP stands -0.156; under RRIRDRPPRLPRPRPRPCPSPRP, 0.114.
Under RRIRLRPPRLPRPRPRPHPVPRP stands 0.0604.
Under RRIRYRPPRLPRPRPRPNNFPRP stands -0.418; under RRIRARPPRLPRPRPRPIEKPRP, 0.15; under RRIRQRPPRLPRPRPRPCVFPRP, -0.049.
As for RRIRQRPPRLPRPRPRPWRHPRP, the “shrunken log2 fold change” value is 0.0151.
RRIRMRPPRLPRPRPRPGDAPRP: the “shrunken log2 fold change” value was 0.853.
To RRIRNRPPRLPRPRPRPNMSPRP belongs -0.0455; to RRIRIRPPRLPRPRPRPCEIPRP, -0.0178.
As to RRIRNRPPRLPRPRPRPQRGPRP, the “shrunken log2 fold change” value was found to be 0.237.
Consider RRIRFRPPRLPRPRPRPCKHPRP, for which the “shrunken log2 fold change” value is -0.0872.
RRIRHRPPRLPRPRPRPLNSPRP: the “shrunken log2 fold change” value is -0.883.
To RRIRLRPPRLPRPRPRPLGIPRP belongs -0.199; to RRIRDRPPRLPRPRPRPAENPRP, 0.224.
Under RRIRRRPPRLPRPRPRPAHFPRP stands 0.0399.
To RRIRWRPPRLPRPRPRPNLQPRP belongs 0.0402; to RRIRMRPPRLPRPRPRPVYRPRP, -0.174.
For the sequence RRIRLRPPRLPRPRPRPKNVPRP, the “shrunken log2 fold change” value is -0.124.
To RRIRFRPPRLPRPRPRPDWLPRP belongs -0.0152.
Under RRIRCRPPRLPRPRPRPYSEPRP stands -0.766; under RRIRWRPPRLPRPRPRPRHGPRP, -0.192; under RRIRTRPPRLPRPRPRPNHPPRP, 0.0542.
To RRIRQRPPRLPRPRPRPRVMPRP belongs -0.139.
Turning to RRIRKRPPRLPRPRPRPNTMPRP, the “shrunken log2 fold change” value is -0.209.
Consider RRIRFRPPRLPRPRPRPKWLPRP, for which the “shrunken log2 fold change” value came out at 0.251.
Turning to RRIRNRPPRLPRPRPRPNPFPRP, the “shrunken log2 fold change” value was -0.0489.
On to RRIRQRPPRLPRPRPRPGFWPRP, for which the “shrunken log2 fold change” value worked out at 0.353.
To RRIRDRPPRLPRPRPRPSKIPRP belongs -0.381; to RRIRKRPPRLPRPRPRPVSWPRP, 0.821.
Take RRIRFRPPRLPRPRPRPTDEPRP: the “shrunken log2 fold change” value came to 0.00361.
For the sequence RRIRYRPPRLPRPRPRPRATPRP, the “shrunken log2 fold change” value was -0.0516.
Take RRIRWRPPRLPRPRPRPGRTPRP: the “shrunken log2 fold change” value came to 0.0519.
Under RRIRRRPPRLPRPRPRPLPVPRP stands 0.373; under RRIRFRPPRLPRPRPRPWPWPRP, -0.00192; under RRIRSRPPRLPRPRPRPRFRPRP, 0.203.
For RRIRIRPPRLPRPRPRPNIWPRP, the “shrunken log2 fold change” value was 0.127.
To RRIRQRPPRLPRPRPRPLYFPRP belongs -0.623.
